# From the RNAGym collection of RNA variant scans (doi:10.1101/gr.219683.116)
# B1: mRNA-splicing (parent)
# chain: AGUUGCUGCUGGGAGCUCCAGCACAGUGAAAUGGACAGAAGGGCAGAGCAA
# Variants of: B1
# Assay: exon inclusion enrichment index; higher = more inclusion; WT1 exon 5 minigene, HEK293
row,Variant,exon inclusion enrichment index
1,G5U G8U C9U A40G G41C,0.76
2,G5U G8U C9U A40G G41A,0.0719
3,G5U G8U C9U G34U A35U,0.0186
4,G5U G8U C9U G34U A35G,0.0289
5,G5U G8U C9U G34U A35C,0.0387
6,G5U G8U C9U G11A G12A,0.00894
7,G5U G8U C9U G11A G12U,0.00501
8,G5U G8U C9U G11A G12C,0.0306
9,G5U G8U C9U C22G,0.183
10,G5U G8U C9U C22U,0.095
11,G5U G8U C9U C22A,0.117
12,G5U G8U C9U A45U,0.21
13,G5U G8U C9U A45C,0.201
14,G5U G8U C9U A45G,0.366
15,G5U G8U C9U A39G,0.0522
16,G5U G8U C9U A39U,0.00188
17,G5U G8U C9U A39C,0.0249
18,G5U G8U C9U A37G,0.303
19,G5U G8U C9U A37C,0.465
20,G5U G8U C9U A37U,0.104
21,G5U G8U C9U G21C C22U,0.151

row,Variant,exon inclusion enrichment index
1,G5U G8U C9U G21C C22G,0.384
2,G5U G8U C9U G21C C22A,0.108
3,G5U G8U C9U A30U A31C,0.0725
4,G5U G8U C9U A30U A31U,0.0523
5,G5U G8U C9U A30U A31G,0.15
6,G5U G8U C9U G42A G43C,1.72
7,G5U G8U C9U G42A G43U,1.46
8,G5U G8U C9U G42A G43A,1.46
9,G5U G8U C9U C44G A45G,0.0217
10,G5U G8U C9U C44G A45U,0.0543
11,G5U G8U C9U C44G A45C,0.346
12,G5U G8U C9U C18U C19G,0.0199
13,G5U G8U C9U C18U C19U,0.000815
14,G5U G8U C9U C18U C19A,0.00338
15,G5U G8U C9U G33A G34U,0.0046
16,G5U G8U C9U G33A G34C,0.0112
17,G5U G8U C9U G33A G34A,0.0153
18,G5U G8U C9U G34C A35C,0.0104
19,G5U G8U C9U G34C A35U,0.00745
20,G5U G8U C9U G34C A35G,0.0652
21,G5U G8U C9U A40U G41C,0.508

row,Variant,exon inclusion enrichment index
1,G5U G8U C9U A40U G41A,0.00332
2,G5U G8U C9U A40U G41U,0.0547
3,G5U G8U C9U G26A U27C,0.838
4,G5U G8U C9U G26A U27G,0.338
5,G5U G8U C9U G26A U27A,0.24
6,G5U G8U C9U A35C C36U,0.0048
7,G5U G8U C9U A35C C36A,0.0636
8,G5U G8U C9U A35C C36G,0.125
9,G5U G8U C9U C22G A23G,0.0211
10,G5U G8U C9U C22G A23C,0.0377
11,G5U G8U C9U C22G A23U,0.0132
12,G5U G8U C9U C44U A45G,0.043
13,G5U G8U C9U C44U A45U,0.0921
14,G5U G8U C9U C44U A45C,0.215
15,G5U G8U C9U G15C,0.196
16,G5U G8U C9U G15U,0.107
17,G5U G8U C9U G15A,0.0439
18,G5U G8U C9U A29U A30G,0.129
19,G5U G8U C9U A29U A30C,0.0859
20,G5U G8U C9U A29U A30U,0.0146
21,G5U G8U C9U A31U U32G,0.0359

row,Variant,exon inclusion enrichment index
1,G5U G8U C9U A31U U32C,0.282
2,G5U G8U C9U A31U U32A,0.00567
3,G5U G8U C9U G28A A29U,0.0186
4,G5U G8U C9U G28A A29G,0.0263
5,G5U G8U C9U G28A A29C,0.0709
6,G5U G8U C9U A45U G46C,0.11
7,G5U G8U C9U A45U G46A,0.0906
8,G5U G8U C9U A45U G46U,0.0271
9,G5U G8U C9U G21A C22A,0.0256
10,G5U G8U C9U G21A C22G,0.143
11,G5U G8U C9U G21A C22U,0.0464
12,G5U G8U C9U C19U A20U,0.0205
13,G5U G8U C9U C19U A20G,0.0101
14,G5U G8U C9U C19U A20C,0.0318
15,G5U G8U C9U A47C G48A,0.0919
16,G5U G8U C9U A47C G48C,0.139
17,G5U G8U C9U A47C G48U,0.134
18,G5U G8U C9U C24U A25G,0.363
19,G5U G8U C9U C24U A25C,0.987
20,G5U G8U C9U C24U A25U,0.127
21,G5U G8U C9U A31C U32A,0.077
